From US20070054332A1, “Syndecan 1 ectodomain inhibits cancer” (priority 2005, published 2007)
Entries after “also recorded” stand apart in the source; their conditions may differ.

What was measured:
[1] = system: MDA-MB-231 human mammary carcinoma cells; assay: Rescue of proliferation in siRNA-treated cells by mouse Sdc1 constructs; type: cell-based; conditions: MDA-MB-231, endogenous human Sdc1 silenced, mouse construct expressed
Procedure: Full length mouse Sdc1 (FLmS1),GPI linked mS1ED (GPImS1ED) or a construct of mouse Sdc1 in which the heparan sulfate attachment sites are mutated (TDM) were stably transfected into MDA-MB-231 cells and selected with 1.5 mg/ml G418 (Gibco BRL). These stable transfectants were maintained in culture in the presence of G418 and were checked periodically for constant expression of FLmS 1, GPImS1ED or TDM. Cells expressing these transgenes at similar levels were sorted by FACS before the experiments. Cells transfected with the empty pcDNA3 vector (NEO) were used as control.
Silencing of human Sdc1 with specific short interfering RNA (siRNA). Purified, duplexed siRNAs specific for human Sdc1 were purchased from Ambion (Austin, Tex.). The siRNA sequences targeting human Sdc1 were: hsdc1-1, […]; hsdc1-2, […]; hsdc1-3, […]. […]
Assessment of Cell Growth. To quantify cell proliferation, cells grown in matrigel (3D culture) or on top of matrigel (2D culture) were released from the matrigel by 45-60 min incubation at 37° C. with Dispase (BD Biosciences), washed with Dulbecco's modified Eagle's medium (DMEM) 2-3 times and resuspended into 400 ul fresh DMEM for cell counting by hemocytometer. Triplicate wells, replicated in at least three experiments, were used for the quantification.

[2] = system: S115 mouse mammary tumor cells; conditions: nanomolar concentrations; Mali et al. (1994); cited from earlier work
αvβ5 integrin = biological target: T1, αvβ5 integrin (Mus musculus, UniProt O70309+P43406); conditions: B82L mouse fibroblasts, competing concentrations; McQuade et al., 2006; cited from earlier work
T1 construct: B82L mouse fibroblasts expressing this integrin; endogenous in cells; host or cells: B82L mouse fibroblasts
T1 sequence (P43406 31-1044): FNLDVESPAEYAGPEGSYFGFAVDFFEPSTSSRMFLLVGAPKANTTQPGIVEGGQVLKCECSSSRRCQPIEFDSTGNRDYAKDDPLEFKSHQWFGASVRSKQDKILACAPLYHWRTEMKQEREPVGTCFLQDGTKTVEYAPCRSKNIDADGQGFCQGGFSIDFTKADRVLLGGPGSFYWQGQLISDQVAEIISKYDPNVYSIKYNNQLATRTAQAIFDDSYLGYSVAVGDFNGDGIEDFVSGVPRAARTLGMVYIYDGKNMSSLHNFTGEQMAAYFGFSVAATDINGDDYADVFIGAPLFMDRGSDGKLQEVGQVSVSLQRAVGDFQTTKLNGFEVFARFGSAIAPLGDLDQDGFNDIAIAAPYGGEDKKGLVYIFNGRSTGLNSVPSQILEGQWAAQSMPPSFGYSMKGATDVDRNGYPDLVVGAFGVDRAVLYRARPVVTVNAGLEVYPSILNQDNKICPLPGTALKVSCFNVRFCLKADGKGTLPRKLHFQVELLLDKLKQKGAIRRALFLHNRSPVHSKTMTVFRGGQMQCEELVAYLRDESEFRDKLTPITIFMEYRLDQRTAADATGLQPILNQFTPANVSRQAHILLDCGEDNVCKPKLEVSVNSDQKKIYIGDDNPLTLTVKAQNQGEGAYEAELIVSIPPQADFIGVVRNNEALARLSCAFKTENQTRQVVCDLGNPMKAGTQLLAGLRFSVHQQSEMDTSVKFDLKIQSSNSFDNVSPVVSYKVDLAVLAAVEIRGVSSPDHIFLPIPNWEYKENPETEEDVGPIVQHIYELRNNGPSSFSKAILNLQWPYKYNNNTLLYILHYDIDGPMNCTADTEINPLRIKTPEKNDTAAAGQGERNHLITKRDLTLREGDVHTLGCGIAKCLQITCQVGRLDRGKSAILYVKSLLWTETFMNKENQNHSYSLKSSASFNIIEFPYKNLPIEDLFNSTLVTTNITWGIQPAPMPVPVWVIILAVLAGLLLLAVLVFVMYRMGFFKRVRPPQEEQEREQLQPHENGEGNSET
T1 sequence (O70309 24-798): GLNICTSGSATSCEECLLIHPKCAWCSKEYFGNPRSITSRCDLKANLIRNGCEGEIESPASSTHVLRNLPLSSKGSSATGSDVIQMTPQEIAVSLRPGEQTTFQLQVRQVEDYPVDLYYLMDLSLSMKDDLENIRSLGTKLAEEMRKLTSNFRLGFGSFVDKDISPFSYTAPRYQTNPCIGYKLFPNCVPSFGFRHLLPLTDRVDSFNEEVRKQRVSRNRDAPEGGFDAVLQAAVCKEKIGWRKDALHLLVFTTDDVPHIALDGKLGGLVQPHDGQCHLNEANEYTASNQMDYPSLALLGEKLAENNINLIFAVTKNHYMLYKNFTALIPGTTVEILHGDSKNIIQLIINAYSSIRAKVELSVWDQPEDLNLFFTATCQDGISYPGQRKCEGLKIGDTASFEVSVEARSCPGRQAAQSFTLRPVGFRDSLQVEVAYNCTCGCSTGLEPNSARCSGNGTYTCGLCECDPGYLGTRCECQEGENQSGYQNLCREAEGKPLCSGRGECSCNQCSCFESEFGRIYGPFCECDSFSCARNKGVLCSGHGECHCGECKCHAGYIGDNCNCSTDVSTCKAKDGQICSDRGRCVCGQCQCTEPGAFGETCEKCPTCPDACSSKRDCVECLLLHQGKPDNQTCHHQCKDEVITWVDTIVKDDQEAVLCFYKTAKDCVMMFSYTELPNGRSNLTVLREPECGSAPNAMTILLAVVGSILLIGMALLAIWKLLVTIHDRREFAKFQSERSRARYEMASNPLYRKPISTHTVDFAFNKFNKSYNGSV

[3] = biological target: T2, Sdc1 and the αvβ5 integrin complex (Mus musculus, UniProt O70309+P43406); conditions: B82L cells, competing concentration; McQuade et al., 2006; cited from earlier work
T2 construct: immunoprecipitation of Sdc1 from the B82L cells co-precipitates the integrin with the Sdc1; endogenous in cells; host or cells: B82L mouse fibroblasts
T2 sequence (P43406 31-1044): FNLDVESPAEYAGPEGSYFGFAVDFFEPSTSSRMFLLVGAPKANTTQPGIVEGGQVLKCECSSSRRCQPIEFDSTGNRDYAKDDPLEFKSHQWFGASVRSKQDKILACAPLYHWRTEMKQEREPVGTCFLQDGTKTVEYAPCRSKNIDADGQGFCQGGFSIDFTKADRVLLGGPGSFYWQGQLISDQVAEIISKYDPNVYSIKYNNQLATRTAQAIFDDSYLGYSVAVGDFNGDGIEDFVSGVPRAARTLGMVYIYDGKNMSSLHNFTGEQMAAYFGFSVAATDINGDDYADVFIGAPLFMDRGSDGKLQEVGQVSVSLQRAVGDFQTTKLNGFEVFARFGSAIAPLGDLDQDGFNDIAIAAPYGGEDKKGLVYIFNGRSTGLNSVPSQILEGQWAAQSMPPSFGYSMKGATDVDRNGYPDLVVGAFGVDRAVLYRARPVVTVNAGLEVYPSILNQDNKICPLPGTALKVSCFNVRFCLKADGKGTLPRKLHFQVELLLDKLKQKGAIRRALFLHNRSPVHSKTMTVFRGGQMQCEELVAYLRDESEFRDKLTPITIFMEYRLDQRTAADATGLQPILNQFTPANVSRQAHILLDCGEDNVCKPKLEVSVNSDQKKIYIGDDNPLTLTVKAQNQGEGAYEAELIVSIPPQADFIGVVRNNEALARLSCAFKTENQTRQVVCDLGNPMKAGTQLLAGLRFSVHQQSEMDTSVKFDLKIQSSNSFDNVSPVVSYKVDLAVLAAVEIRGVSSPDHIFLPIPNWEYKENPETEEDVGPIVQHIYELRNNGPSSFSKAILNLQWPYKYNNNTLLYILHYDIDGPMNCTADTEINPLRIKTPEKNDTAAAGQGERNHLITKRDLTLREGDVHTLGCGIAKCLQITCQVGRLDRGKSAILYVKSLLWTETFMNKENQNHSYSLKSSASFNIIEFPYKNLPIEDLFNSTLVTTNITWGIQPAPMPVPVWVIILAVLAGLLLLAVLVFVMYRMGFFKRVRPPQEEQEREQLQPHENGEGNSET
T2 sequence (O70309 24-798): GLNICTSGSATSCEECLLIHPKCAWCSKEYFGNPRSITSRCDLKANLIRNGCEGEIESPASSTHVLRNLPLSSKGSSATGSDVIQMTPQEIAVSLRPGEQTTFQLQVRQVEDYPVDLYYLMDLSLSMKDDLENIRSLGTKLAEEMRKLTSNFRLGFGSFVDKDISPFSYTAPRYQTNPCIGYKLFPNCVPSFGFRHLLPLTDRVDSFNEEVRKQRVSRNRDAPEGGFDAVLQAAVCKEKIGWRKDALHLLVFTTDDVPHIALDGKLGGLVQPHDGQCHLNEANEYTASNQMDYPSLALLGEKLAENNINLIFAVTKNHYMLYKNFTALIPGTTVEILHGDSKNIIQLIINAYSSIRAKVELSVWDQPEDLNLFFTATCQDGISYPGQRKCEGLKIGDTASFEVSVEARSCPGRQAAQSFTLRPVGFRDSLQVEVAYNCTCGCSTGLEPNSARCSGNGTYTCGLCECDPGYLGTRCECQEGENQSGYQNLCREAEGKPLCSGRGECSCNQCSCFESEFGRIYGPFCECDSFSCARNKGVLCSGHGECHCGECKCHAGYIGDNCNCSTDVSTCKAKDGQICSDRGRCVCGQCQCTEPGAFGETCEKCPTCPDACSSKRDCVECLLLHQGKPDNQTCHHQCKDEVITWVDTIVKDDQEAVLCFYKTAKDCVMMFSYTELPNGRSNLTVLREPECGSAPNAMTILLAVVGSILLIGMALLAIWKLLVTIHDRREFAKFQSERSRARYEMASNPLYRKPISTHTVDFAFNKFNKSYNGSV

[4] = system: MDA-MB-231 cell spreading; conditions: soluble ectodomain, dose-dependent; cited from earlier work
MDA-MB-231 cell = conditions: soluble ectodomain, dose-dependent; cited from earlier work

B1: mouse Sdc1: Full length mouse Sdc1 stably transfected into MDA-MB-231 cells (protein, UniProt P18828 1-311, looked up)
chain: MRRAALWLWLCALALRLQPALPQIVAVNVPPEDQDGSGDDSDNFSGSGTGALPDTLSRQTPSTWKDVWLLTATPTAPEPTSSNTETAFTSVLPAGEKPEEGEPVLHVEAEPGFTARDKEKEVTTRPRETVQLPITQRASTVRVTTAQAAVTSHPHGGMQPGLHETSAPTAPGQPDHQPPRVEGGGTSVIKEVVEDGTANQLPAGEGSGEQDFTFETSGENTAVAAVEPGLRNQPPVDEGATGASQSLLDRKEVLGGVIAGGLVGLIFAVCLVAFMLYRMKKKDEGSYSLEEPKQANGGAYQKPTKQEEFYA
modifications: full-length
notes: Full length mouse Sdc1 stably transfected into MDA-MB-231 cells
rescue of proliferation in siRNA-treated cells [1]: Rescue of proliferation; also recorded: rescues proliferation

B2: free ectodomain: free ectodomain from culture medium of syndecan 1-transfected S115 or normal murine mammary gland cells, bearing heparan sulfate (Mali et al., 1994) (protein, UniProt P18828 23-255, looked up)
extracellular domain: QIVAVNVPPEDQDGSGDDSDNFSGSGTGALPDTLSRQTPSTWKDVWLLTATPTAPEPTSSNTETAFTSVLPAGEKPEEGEPVLHVEAEPGFTARDKEKEVTTRPRETVQLPITQRASTVRVTTAQAAVTSHPHGGMQPGLHETSAPTAPGQPDHQPPRVEGGGTSVIKEVVEDGTANQLPAGEGSGEQDFTFETSGENTAVAAVEPGLRNQPPVDEGATGASQSLLDRKEVLG
modifications: extracellular domain heparan sulfate
growth of S115 tumor cells [2]: suppress the growth

B3: recombinant Sdc1 ectodomain: recombinant Sdc1 ectodomain added at competing concentrations (McQuade et al., 2006) (protein, UniProt P18828 23-255, looked up)
extracellular domain: QIVAVNVPPEDQDGSGDDSDNFSGSGTGALPDTLSRQTPSTWKDVWLLTATPTAPEPTSSNTETAFTSVLPAGEKPEEGEPVLHVEAEPGFTARDKEKEVTTRPRETVQLPITQRASTVRVTTAQAAVTSHPHGGMQPGLHETSAPTAPGQPDHQPPRVEGGGTSVIKEVVEDGTANQLPAGEGSGEQDFTFETSGENTAVAAVEPGLRNQPPVDEGATGASQSLLDRKEVLG
modifications: extracellular domain
αvβ5 integrin activity (αvβ5 integrin): inactivated | co-precipitation of the integrin with Sdc1 [3]: disrupted

B4: Soluble murine Sdc1 ectodomain: soluble murine Sdc1 ectodomain (Beauvais and Rapraeger, 2003) (protein, UniProt P18828 23-255, looked up)
extracellular domain: QIVAVNVPPEDQDGSGDDSDNFSGSGTGALPDTLSRQTPSTWKDVWLLTATPTAPEPTSSNTETAFTSVLPAGEKPEEGEPVLHVEAEPGFTARDKEKEVTTRPRETVQLPITQRASTVRVTTAQAAVTSHPHGGMQPGLHETSAPTAPGQPDHQPPRVEGGGTSVIKEVVEDGTANQLPAGEGSGEQDFTFETSGENTAVAAVEPGLRNQPPVDEGATGASQSLLDRKEVLG
modifications: extracellular domain
inhibition of MDA-MB-231 cell spreading [4]: competitively inhibits | inhibition in short-term migration assays (MDA-MB-231 cell): competitively inhibits

B5: soluble syndecan-4 ectodomain: soluble syndecan-4 ectodomain, specificity control (protein, UniProt P31431 19-145, looked up)
extracellular domain: ESIRETEVIDPQDLLEGRYFSGALPDDEDVVGPGQESDDFELSGSGDLDDLEDSMIGPEVVHPLVPLDNHIPERAGSGSQVPTEPKKLEENEVIPKRISPVEESEDVSNKVSMSSTVQGSNIFERTE
modifications: extracellular domain
notes: soluble syndecan-4 ectodomain, specificity control
inhibition of MDA-MB-231 cell spreading [4]: fails to compete
